Test [1] concerns the target T1, Gluc1-TAp73α (UniProt O15350 1-636).
T1 sequence (looked up): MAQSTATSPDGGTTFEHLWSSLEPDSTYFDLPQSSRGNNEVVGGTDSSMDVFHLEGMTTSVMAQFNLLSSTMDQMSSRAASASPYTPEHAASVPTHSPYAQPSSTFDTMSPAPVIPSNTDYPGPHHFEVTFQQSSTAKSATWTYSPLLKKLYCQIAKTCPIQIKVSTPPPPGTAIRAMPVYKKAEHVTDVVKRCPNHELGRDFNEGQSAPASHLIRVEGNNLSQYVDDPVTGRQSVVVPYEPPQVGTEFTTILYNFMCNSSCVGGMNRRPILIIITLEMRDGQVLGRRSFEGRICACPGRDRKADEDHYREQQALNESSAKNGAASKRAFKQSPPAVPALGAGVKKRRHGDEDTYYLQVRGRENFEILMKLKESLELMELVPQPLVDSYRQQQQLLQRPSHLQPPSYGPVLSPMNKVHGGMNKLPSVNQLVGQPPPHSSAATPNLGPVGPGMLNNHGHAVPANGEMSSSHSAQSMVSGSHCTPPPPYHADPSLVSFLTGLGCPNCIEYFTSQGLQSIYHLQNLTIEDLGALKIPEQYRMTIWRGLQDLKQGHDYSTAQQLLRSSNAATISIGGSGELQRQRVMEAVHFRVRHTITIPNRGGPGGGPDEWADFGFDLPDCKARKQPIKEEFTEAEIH
The test is described as follows: split reporter.

Test [2] concerns the target T2, Gluc1-ΔNp73α FL (UniProt O15350-8 1-587).
T2 sequence (looked up): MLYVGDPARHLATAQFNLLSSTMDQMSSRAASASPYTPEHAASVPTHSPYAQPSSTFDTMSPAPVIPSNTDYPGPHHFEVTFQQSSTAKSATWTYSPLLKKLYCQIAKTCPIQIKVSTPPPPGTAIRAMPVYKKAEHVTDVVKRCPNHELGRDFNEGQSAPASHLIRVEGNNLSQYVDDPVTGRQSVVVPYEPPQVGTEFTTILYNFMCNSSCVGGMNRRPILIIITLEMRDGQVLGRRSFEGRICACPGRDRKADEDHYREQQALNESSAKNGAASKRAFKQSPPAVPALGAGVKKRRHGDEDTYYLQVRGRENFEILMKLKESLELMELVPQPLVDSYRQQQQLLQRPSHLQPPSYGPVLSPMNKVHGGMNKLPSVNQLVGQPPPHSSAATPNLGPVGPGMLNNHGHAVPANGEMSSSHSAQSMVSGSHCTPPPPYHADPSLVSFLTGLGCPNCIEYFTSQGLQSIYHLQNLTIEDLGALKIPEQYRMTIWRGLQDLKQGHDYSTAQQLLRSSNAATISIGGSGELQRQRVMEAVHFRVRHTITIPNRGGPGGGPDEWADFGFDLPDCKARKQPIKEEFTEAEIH
The test is described as follows: split reporter.

Test [3] deals with T3, Gluc1-ΔN(74–348) (UniProt O15350-8 74-348).
T3 sequence (looked up): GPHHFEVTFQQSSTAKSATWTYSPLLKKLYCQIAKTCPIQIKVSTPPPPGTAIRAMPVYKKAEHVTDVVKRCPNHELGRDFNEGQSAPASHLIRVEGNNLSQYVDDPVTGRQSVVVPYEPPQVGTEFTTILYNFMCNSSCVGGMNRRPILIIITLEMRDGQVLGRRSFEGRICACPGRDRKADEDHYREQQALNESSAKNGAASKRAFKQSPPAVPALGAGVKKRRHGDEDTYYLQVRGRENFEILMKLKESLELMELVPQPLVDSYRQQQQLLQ
Kind of test: split reporter.

Test [4] has as its target T4, minimal E2F4/DP1 heterodimer (E2F4s/DP1s) (human, UniProt Q16254 84-413; Q14186 199-350).
T4 sequence (looked up) 1: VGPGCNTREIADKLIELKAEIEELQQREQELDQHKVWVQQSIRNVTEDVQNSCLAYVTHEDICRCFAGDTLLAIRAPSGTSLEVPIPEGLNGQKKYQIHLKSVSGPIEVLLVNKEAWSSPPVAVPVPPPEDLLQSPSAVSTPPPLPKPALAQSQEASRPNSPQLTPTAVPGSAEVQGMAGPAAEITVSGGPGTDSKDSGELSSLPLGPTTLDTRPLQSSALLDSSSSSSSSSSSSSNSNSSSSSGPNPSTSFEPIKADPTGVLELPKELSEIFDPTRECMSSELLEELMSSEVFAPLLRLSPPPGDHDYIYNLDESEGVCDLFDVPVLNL
T4 sequence (looked up) 2: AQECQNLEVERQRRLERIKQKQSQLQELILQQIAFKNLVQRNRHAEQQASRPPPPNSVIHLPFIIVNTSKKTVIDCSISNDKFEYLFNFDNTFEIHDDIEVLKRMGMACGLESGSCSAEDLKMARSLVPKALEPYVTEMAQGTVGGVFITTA
The test is described as follows: pull-down.

The target in test [5] is Gluc1-E2F4 (human, UniProt Q16254 1-413). Kind of test: split reporter.

B1: Gluc2-E2F4 FL (natural protein)
chain: not shown
As to B1, the “binding response relative to ΔNp73α” value in test [1] was around 50%. For the same molecule, the “normalized luminescence ratio (NLR)” value in test [2] was above 20. In addition, the “binding relative to ΔNp73α FL/E2F4 FL” value in test [3] amounted to 60%.

B2: Gluc2-E2F(1–336) (domain or fragment)
chain: not shown
With B2, the “binding relative to ΔNp73α FL/E2F4 FL” value in test [2] was 60%.

B3: MBP-ΔN(1-348) (domain or fragment, UniProt O15350-8 1-348, looked up)
chain: MLYVGDPARHLATAQFNLLSSTMDQMSSRAASASPYTPEHAASVPTHSPYAQPSSTFDTMSPAPVIPSNTDYPGPHHFEVTFQQSSTAKSATWTYSPLLKKLYCQIAKTCPIQIKVSTPPPPGTAIRAMPVYKKAEHVTDVVKRCPNHELGRDFNEGQSAPASHLIRVEGNNLSQYVDDPVTGRQSVVVPYEPPQVGTEFTTILYNFMCNSSCVGGMNRRPILIIITLEMRDGQVLGRRSFEGRICACPGRDRKADEDHYREQQALNESSAKNGAASKRAFKQSPPAVPALGAGVKKRRHGDEDTYYLQVRGRENFEILMKLKESLELMELVPQPLVDSYRQQQQLLQ
Turning to B3, the binding result in test [4] was “binds”.

B4: Gluc2-DP1 (natural protein, human, UniProt Q14186 1-410, looked up)
chain: MAKDAGLIEANGELKVFIDQNLSPGKGVVSLVAVHPSTVNPLGKQLLPKTFGQSNVNIAQQVVIGTPQRPAASNTLVVGSPHTPSTHFASQNQPSDSSPWSAGKRNRKGEKNGKGLRHFSMKVCEKVQRKGTTSYNEVADELVAEFSAADNHILPNESAYDQKNIRRRVYDALNVLMAMNIISKEKKEIKWIGLPTNSAQECQNLEVERQRRLERIKQKQSQLQELILQQIAFKNLVQRNRHAEQQASRPPPPNSVIHLPFIIVNTSKKTVIDCSISNDKFEYLFNFDNTFEIHDDIEVLKRMGMACGLESGSCSAEDLKMARSLVPKALEPYVTEMAQGTVGGVFITTAGSTSNGTRFSASDLTNGADGMLATSSNGSQYSGSRVETPVSYVGEDDEEDDDFNENDEDD
As for B4, the “normalized luminescence ratio (NLR)” value in test [5] was around 500.

B5: Gluc2-E2F(1–90) (domain or fragment)
chain: not shown
As to B5, the “binding relative to ΔNp73α FL/E2F4 FL” value in test [2] amounted to 20%.
